Article PMC11009657 (Proceedings of the National Academy of Sciences of the …, 2024)

Experiments:
[1] = molecular target: tau extracted from Alzheimer brain samples (human (endogenous in Alzheimer brain)); experiment: sarkosyl extraction and Western blot
ThT fluorescence + TEM = molecular target: the molecule itself; experiment: ThT fluorescence + TEM

Chain of tau extracted from Alzheimer brain samples (natural protein) (P10636 2-758): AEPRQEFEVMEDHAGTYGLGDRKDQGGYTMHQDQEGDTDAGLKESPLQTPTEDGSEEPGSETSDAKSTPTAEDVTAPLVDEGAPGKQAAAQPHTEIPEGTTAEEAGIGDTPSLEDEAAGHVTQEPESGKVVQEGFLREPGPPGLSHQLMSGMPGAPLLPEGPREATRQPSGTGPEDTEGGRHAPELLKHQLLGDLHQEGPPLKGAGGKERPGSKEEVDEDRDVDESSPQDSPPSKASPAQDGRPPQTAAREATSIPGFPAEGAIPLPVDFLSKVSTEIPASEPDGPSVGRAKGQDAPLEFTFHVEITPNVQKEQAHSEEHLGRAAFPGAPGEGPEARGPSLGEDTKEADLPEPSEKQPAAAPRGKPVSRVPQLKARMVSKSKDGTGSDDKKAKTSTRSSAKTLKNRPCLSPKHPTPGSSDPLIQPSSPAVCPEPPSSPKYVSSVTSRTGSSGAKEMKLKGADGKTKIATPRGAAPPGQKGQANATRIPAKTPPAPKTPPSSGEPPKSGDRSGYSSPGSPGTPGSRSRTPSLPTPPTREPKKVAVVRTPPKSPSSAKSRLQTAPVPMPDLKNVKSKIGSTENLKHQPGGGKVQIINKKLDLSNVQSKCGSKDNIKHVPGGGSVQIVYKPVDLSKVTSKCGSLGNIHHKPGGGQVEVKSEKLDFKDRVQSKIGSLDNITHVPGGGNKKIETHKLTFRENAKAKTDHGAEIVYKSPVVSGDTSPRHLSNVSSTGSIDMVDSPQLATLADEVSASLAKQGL

Molecule	stoichiometry N [1]	binding result (ThT fluorescence + TEM)
tau extracted from Alzheimer brain samples (natural protein)	6	–
DNIKHVPGGGSVQIVYKPV [jR2R3]	–	binds
